Measured values reported in patent publication US11278600B2, “Human alpha-galactosidase variants” (Codexis, Inc., priority 2014, dated 2022).
Residue numbers refer to the chain shown, from its start.

B1: 370 (protein)
chain: LDNGLARTPTMGWLHWERFMCNLDCQEEPDSCISEKLFMEMAEQMVSEGWKDAGYEYLCIDDCWMAPQRDSEGRLQADPQRFPHGIRQLANYVHSKGLKLGIYADVGNKTCAGFPGSFGYYDIDAQTFADWGVDLLKFDGCYCDSLENLADGYKHMSLALNRTGRSIVYSCEWPLYMWPFQKPNYTEIRQYCNHWRNFADIDDSWKSIKSILDWTSRNQERIVDVAGPGGWNDPDMLVIGNFGLSWDQQVTQMALWAIMAAPLFMSNDLRHISPQAKALLQDKDVIAINQDPLGKQGYQLRKGDNFEVWERPLSGDAWAVAIINRQEIGGPRSYTIPVASLGKGVACNPACFITQLLPVKRQLGFYNWTSRLKSHINPTGTVLLQLENTMQMSLKDLL
modifications: Synthetic Polypeptide sequence of Variant No. 370 of mature Human GLA
B2: 482 (protein)
chain: LDNGLARTPTMGWLHWERFMCNLDCQEEPDSCISEKLFMEMAERMVSEGWKDAGYEYLCIDDCWMAPQRDSEGRLQADPQRFPHGIRQLANYVHSKGLKLGIYADVGNKTCAGFPGSFGYYDIDAQTFADWGVDLLKFDGCYCDSLENLADGYKHMSLALNRTGRSIVYSCEWPLYMWPFQKPNYTEIRQYCNHWRNFADIDDSWKSIKSILDWTSFNQERIVDVAGPGGWNDPDMLVIGNFGLSWNQQVTQMALWAIMAAPLFMSNDLRHISPQAKALLQDKDVIAINQDPLGKQGYQLRQGDNFEVWERPLSGLAWAVAMINRQEIGGPRSYTIAVASLGKGVACNPACFITQLLPVKRKLGFYEWTSRLRSHINPTGTVLLGLENTMQMSLKDLL
modifications: Synthetic Polypeptide sequence of Variant No. 482 of mature Human GLA
B3: 490 (protein)
chain: B2 chain with G385Q, M390D
modifications: Synthetic Polypeptide sequence of Variant No. 490 of mature Human GLA
B4: 483 (protein)
chain: B2 chain with G385Q, M392C
modifications: Synthetic Polypeptide sequence of Variant No. 483 of mature Human GLA
B5: 485 (protein)
chain: B2 chain with G385Q, M392W
modifications: Synthetic Polypeptide sequence of Variant No. 485 of mature Human GLA
B6: 488 (protein)
chain: B2 chain with G385Q, T389N
modifications: Synthetic Polypeptide sequence of Variant No. 488 of mature Human GLA
B7: 493 (protein)
chain: B2 chain with G385Q, M392P
modifications: Synthetic Polypeptide sequence of Variant No. 493 of mature Human GLA
B8: 487 (protein)
chain: B2 chain with G385Q, T389G
modifications: Synthetic Polypeptide sequence of Variant No. 487 of mature Human GLA
B9: 491 (protein)
chain: B2 chain with G385Q, M390W
modifications: Synthetic Polypeptide sequence of Variant No. 491 of mature Human GLA
B10: 492 (protein)
chain: B2 chain with G385Q, T389C
modifications: Synthetic Polypeptide sequence of Variant No. 492 of mature Human GLA
B11: 484 (protein)
chain: B2 chain with G385Q, M392V
modifications: Synthetic Polypeptide sequence of Variant No. 484 of mature Human GLA
B12: 486 (protein)
chain: B2 chain with G385Q, M390C
modifications: Synthetic Polypeptide sequence of Variant No. 486 of mature Human GLA
B13: 489 (protein)
chain: B2 chain with G385Q, T389I
modifications: Synthetic Polypeptide sequence of Variant No. 489 of mature Human GLA

What was measured:
Format in all cases: biochemical
[1] = HTP-analysis of supernatants pretreated with acid (MUGal hydrolysis); details: activity of the variant/activity of Rd4BB (SEQ ID NO: 15); challenge at pH 3.7
In short: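 Supernatants from INVSc1 yeast secreting GLA variants were challenged at 37° C. for 1-3 h in McIlvaine buffer at pH 3.3-4.3. Residual activity was then measured on 4 mM MUGal substrate stock at pH 4.8 with citrate buffer pH 4.3, over 30-180 min at 37° C. Reactions were quenched with sodium carbonate and read by fluorescence (Ex 355/Em 448 nm).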

[2] = HTP-analysis of supernatants pretreated with base (MUGal hydrolysis); details: activity of the variant/activity of Rd4BB (SEQ ID NO: 15); challenge at pH 9.65
In short: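 Fluorescence of released 4-MU (Ex 355 nm, Em 448 nm) after carbonate quench reports MUGal hydrolysis by GLA variants secreted from INVSc1 yeast. Before the acidic (pH 4.3-4.8) 30-180 min reaction at 37° C, supernatants had been pre-incubated at pH 7.0-9.7 for 1-18 h at 37° C.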

[3] = HTP-analysis of yeast culture supernatants, no challenge (MUGal hydrolysis); details: activity of the variant/activity of Rd4BB (SEQ ID NO: 15)
In short: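 GLA variants expressed in yeast INVSc1, secreted into SD-Ura broth over 66-84 h at 30° C; clarified supernatants tested without challenge. Supernatant mixed with McIlvaine buffer pH 4.8 and 2 mM MUGal (citrate/KCl, pH 4.6), 37° C for 30-180 min, carbonate-quenched, fluorescence Ex 355/Em 448 nm.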

| Molecule | Relative Activity of GLA Variants After Challenge at pH 3.7 [1] | Relative Activity of GLA Variants After Challenge at pH 9.65 [2] | Relative Activity of GLA Variants After No Challenge (NC) [3] |
| --- | --- | --- | --- |
| B1 | ++ (>1.5 to 2.5 relative activity over Rd4BB (SEQ ID NO: 15)) | + (0.5 to 1.5 relative activity over Rd4BB (SEQ ID NO: 15)) | + (0.5 to 1.5 relative activity over Rd4BB (SEQ ID NO: 15)) |
| B2 | + (0.5 to 1.5 relative activity over Rd4BB (SEQ ID NO: 15)) | + (0.5 to 1.5 relative activity over Rd4BB (SEQ ID NO: 15)) | + (0.5 to 1.5 relative activity over Rd4BB (SEQ ID NO: 15)) |
| B3 | + (0.5 to 1.5 relative activity over Rd4BB (SEQ ID NO: 15)) | + (0.5 to 1.5 relative activity over Rd4BB (SEQ ID NO: 15)) | + (0.5 to 1.5 relative activity over Rd4BB (SEQ ID NO: 15)) |
| B4 | + (0.5 to 1.5 relative activity over Rd4BB (SEQ ID NO: 15)) | + (0.5 to 1.5 relative activity over Rd4BB (SEQ ID NO: 15)) | + (0.5 to 1.5 relative activity over Rd4BB (SEQ ID NO: 15)) |
| B5 | + (0.5 to 1.5 relative activity over Rd4BB (SEQ ID NO: 15)) | + (0.5 to 1.5 relative activity over Rd4BB (SEQ ID NO: 15)) | + (0.5 to 1.5 relative activity over Rd4BB (SEQ ID NO: 15)) |
| B6 | + (0.5 to 1.5 relative activity over Rd4BB (SEQ ID NO: 15)) | + (0.5 to 1.5 relative activity over Rd4BB (SEQ ID NO: 15)) | + (0.5 to 1.5 relative activity over Rd4BB (SEQ ID NO: 15)) |
| B7 | + (0.5 to 1.5 relative activity over Rd4BB (SEQ ID NO: 15)) | + (0.5 to 1.5 relative activity over Rd4BB (SEQ ID NO: 15)) | + (0.5 to 1.5 relative activity over Rd4BB (SEQ ID NO: 15)) |
| B8 | + (0.5 to 1.5 relative activity over Rd4BB (SEQ ID NO: 15)) | + (0.5 to 1.5 relative activity over Rd4BB (SEQ ID NO: 15)) | + (0.5 to 1.5 relative activity over Rd4BB (SEQ ID NO: 15)) |
| B9 | + (0.5 to 1.5 relative activity over Rd4BB (SEQ ID NO: 15)) | + (0.5 to 1.5 relative activity over Rd4BB (SEQ ID NO: 15)) | + (0.5 to 1.5 relative activity over Rd4BB (SEQ ID NO: 15)) |
| B10 | + (0.5 to 1.5 relative activity over Rd4BB (SEQ ID NO: 15)) | + (0.5 to 1.5 relative activity over Rd4BB (SEQ ID NO: 15)) | + (0.5 to 1.5 relative activity over Rd4BB (SEQ ID NO: 15)) |
| B11 | + (0.5 to 1.5 relative activity over Rd4BB (SEQ ID NO: 15)) | + (0.5 to 1.5 relative activity over Rd4BB (SEQ ID NO: 15)) | + (0.5 to 1.5 relative activity over Rd4BB (SEQ ID NO: 15)) |
| B12 | + (0.5 to 1.5 relative activity over Rd4BB (SEQ ID NO: 15)) | + (0.5 to 1.5 relative activity over Rd4BB (SEQ ID NO: 15)) | + (0.5 to 1.5 relative activity over Rd4BB (SEQ ID NO: 15)) |
| B13 | + (0.5 to 1.5 relative activity over Rd4BB (SEQ ID NO: 15)) | + (0.5 to 1.5 relative activity over Rd4BB (SEQ ID NO: 15)) | + (0.5 to 1.5 relative activity over Rd4BB (SEQ ID NO: 15)) |
